In patent US20240109974A1 (SHANDONG SIMCERE BIOPHARMACEUTICAL, published 2024):
Substitutions are numbered along the chain they refer to. One block for each binder: values may come before it.

Key:
[1] = target: T1, Human TNFR2-His (Sino 10417-H08H) (human, UniProt P20333 23-257); test: ELISA, plate coated with Human TNFR2-His, detection with anti-human IgG Fc-HRP [panel C]
T1 construct: Bought protein; also called recombinant human TNFR2 protein; not shown: His tag
T1 sequence (looked up): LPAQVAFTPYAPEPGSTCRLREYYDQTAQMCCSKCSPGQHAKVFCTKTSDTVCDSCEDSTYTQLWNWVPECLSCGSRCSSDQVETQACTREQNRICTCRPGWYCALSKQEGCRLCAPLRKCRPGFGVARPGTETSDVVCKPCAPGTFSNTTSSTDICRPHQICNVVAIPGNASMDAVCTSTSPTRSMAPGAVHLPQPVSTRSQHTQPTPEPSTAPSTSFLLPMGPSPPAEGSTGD
Protocol: (§1) The test humanized antibody against TNFR2 (as described in Example 1, the antibody was comprised of variable regions linked to IgG-Fc; the WT chimeric antibody also adopted the IgG-Fc structure) was subjected to 3.33-fold gradient dilution, loaded with 100 μl/well, and incubated with shaking at room temperature for 1.5 hours. The plate was washed, and then a working solution of murine anti-human IgG Fc-HRP (diluted at 1:10000) was added, loaded with 100 μl/well, and incubated with shaking at room temperature for 1.0 hour. The plate was washed again, and then the substrate TMB of HRP was added to develop colour. A stop solution was added to stop the reaction, and then a microplate reader (MD 13) was used to read the absorbance value. The binding curve of an antibody was drawn with antibody concentration as the abscissa and corresponding OD value as the ordinate, and fitted with four parameters (GraphPad Prism9) to calculate the EC50 value. The smaller the EC50 value, the stronger the binding ability of an antibody to human/cynomolgus monkey TNFR2. The binding effect of a humanized antibody was normalized to its corresponding human-murine chimeric antibody WT (see SEQ ID NOs: 38-43 for the sequence). The higher the percentage value, the better the binding effect of the humanized antibody. […]

[2] = target: T2, Cynomolgus TNFR2-His (Sino 90102-C08H) (cynomolgus monkey, UniProt A0A2K5VET2 132-366); test: ELISA, plate coated with Cynomolgus TNFR2-His, detection with anti-human IgG Fc-HRP [panel B]
T2 construct: Bought protein; also called cynomolgus monkey TNFR2; recombinant cynomolgus monkey TNFR2 protein; not shown: His tag
T2 sequence: T1 sequence (looked up) with S16G, S36P, P117Q, N164H, E210A, S216G, M223V
Protocol: as §1

[3] = target: T3, human TNFR2 (Novoprotein, Cat #C830) (human, UniProt P20333 23-257, limits assumed); test: competition ELISA, competitor human TNFα-Biotin; AUC against 219-WT
T3 construct: construct not described; also called human TNFR2 protein
T3 sequence (looked up): T1 sequence (looked up)
Protocol: 1 μg/ml human TNFR2 (Novoprotein, Cat #C830) was pre-coated with 100 μl/well […] in an ELISA plate. All the test TNFR2 antibodies were subjected to 2.5-fold gradient dilution from the highest concentration of 30 μg/ml; the diluted antibodies were mixed with 15 ng/ml human TNFα-Biotin (Acro Biosystem, Cat #TNA-H82E3) in equal volume, respectively; the resulting mixture was added to the ELISA plate at 100 μl/well, and incubated with shaking at room temperature for 2.0 hours. The plate was washed, and then a Streptavidin-HRP working solution (diluted at 1:10000) was added at 100 μl/well, and the mixture was incubated with shaking at room temperature for 40 minutes. The plate was washed again, and then the substrate TMB of HRP was added to develop colour. A stop solution was added to stop the reaction, and then a microplate reader (MD 13) was used to read the absorbance value. The inhibitory curve of an antibody was drawn with antibody concentration as the abscissa and corresponding OD value as the ordinate, and fitted with four parameters (GraphPad Prism9) to calculate the IC50 value. The smaller the IC50 value, the stronger the ability of an antibody to inhibit the binding of human TNFα to human TNFR2. The blocking effect of a humanized antibody was normalized to its corresponding human-murine chimeric antibody WT. The higher the percentage value, the better the inhibitory effect of the humanized antibody.

B3: 219-Hu3 (antibody, V domains shown)
VH: QVQLVQSGAEVKKPGSSVKVSCKASGYSFTNYWMNWVRQAPGQGLEWMGMIHPSDTETRLNQNFKDRVTITADKSTSTAYMELSSLRSEDTAVYYCARGEGLGAARSVSMDYWGQGTLVTVSS
VL: DIQMTQSPSSLSASVGDRVTITCRASQDISNYLNWYQQKPDGTVKLLIYYTAILHSGVPSRFSGSGSGTDYSLTISSLQPEDFATYFCQQGNTLPWTFGQGTKVEIK
notes: also called VH5 + VL5
% Relative activity (WT antibody/test antibody) [3]: 103%

B6: 219-Hu1 (antibody, V domains shown)
VH: B3 VH with S16A, G44R, A72R, K74T, T76A
VL: B3 VL
notes: also called VH3 + VL5
% Relative activity (WT antibody/test antibody) [3]: 105%

B7: 219-Hu2 (antibody, V domains shown)
VH: B3 VH with R67K, V68A
VL: B3 VL
notes: also called VH4 + VL5
% Relative activity (WT antibody/test antibody) [3]: 104%

Now from value to binder:

EC50 (read off the curve) [1]: ~10 ng/mL
B1: 224-WT (antibody, V domains shown)
VH: EVQLQESGPEIVKPGASVKLSCTASGFNNKDIYMHWVKQRPEQGLEWIGRIDPATGNTKHDPKFQDKATLSSDTSSNTAYLQFSSLTSEDTAVYYCAHSPYGDFGAMDYWGQGTTVTVSS
VL: DIQMTQSPAIMSASLGERVTMTCTASSSVSSNYLHWYQQKPGSSPKLWIYSTSNLPSGVPARFSGSGSGTSYSLTISSMEAEDAATYYCHQYHRSPWTFGGGTKLEIK
notes: Human-murine chimeric wild-type molecule; also called human-murine chimeric antibody WT of #224

EC50 (read off the curve) [2]: ~10 ng/mL
B2: 219-WT (antibody, V domains shown)
VH: EVQLQESGAELVRPGASVKLSCKASGYSFTNYWMNWVKQRPGQGLEWIGMIHPSDTETRLNQNFKDKATLTVDKSSSTSYMQLSSPTSEDSAVYYCARGEGLGAARSVSMDYWGQGTTVTVSS
VL: B3 VL with Q3L, V15L, T22S, L46V, S77N, Q79E, P80Q, F83I, Q100G, V104L
notes: Human-murine chimeric wild-type molecule

% Relative activity (WT antibody/test antibody) [3]: 105%
B4: 219-Hu4 (antibody, V domains shown)
VH: B3 VH with R38K, M48I, R67K, V68A, I70L, A72V
VL: B3 VL
notes: also called VH6 + VL5

% Relative activity (WT antibody/test antibody) [3]: 106%
B5: 219-Hu5 (antibody, V domains shown)
VH: B3 VH with A72V
VL: B3 VL
notes: also called VH7 + VL5
